# Experimental data: article PMC7039212 (The Journal of Cell Biology, 2019)
# T1: GFP-CD2AP-1–475 aa (human, UniProt Q9Y5K6 1-475)
# T1 sequence (looked up): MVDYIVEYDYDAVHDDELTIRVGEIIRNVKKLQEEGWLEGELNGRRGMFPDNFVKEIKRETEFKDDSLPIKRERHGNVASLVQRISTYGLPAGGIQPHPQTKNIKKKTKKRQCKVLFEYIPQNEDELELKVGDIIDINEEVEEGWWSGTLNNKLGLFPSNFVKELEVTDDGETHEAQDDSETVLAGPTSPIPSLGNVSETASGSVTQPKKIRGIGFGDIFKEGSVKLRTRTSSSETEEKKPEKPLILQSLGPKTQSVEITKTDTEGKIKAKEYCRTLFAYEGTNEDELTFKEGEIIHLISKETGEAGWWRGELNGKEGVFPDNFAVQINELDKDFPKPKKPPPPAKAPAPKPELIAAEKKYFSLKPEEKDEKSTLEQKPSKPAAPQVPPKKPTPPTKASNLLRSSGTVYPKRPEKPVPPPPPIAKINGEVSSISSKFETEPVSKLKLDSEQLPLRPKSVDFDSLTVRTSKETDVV
# T2: GFP-CD2AP-1-335 aa (human, UniProt Q9Y5K6 1-335)
# T2 sequence (looked up): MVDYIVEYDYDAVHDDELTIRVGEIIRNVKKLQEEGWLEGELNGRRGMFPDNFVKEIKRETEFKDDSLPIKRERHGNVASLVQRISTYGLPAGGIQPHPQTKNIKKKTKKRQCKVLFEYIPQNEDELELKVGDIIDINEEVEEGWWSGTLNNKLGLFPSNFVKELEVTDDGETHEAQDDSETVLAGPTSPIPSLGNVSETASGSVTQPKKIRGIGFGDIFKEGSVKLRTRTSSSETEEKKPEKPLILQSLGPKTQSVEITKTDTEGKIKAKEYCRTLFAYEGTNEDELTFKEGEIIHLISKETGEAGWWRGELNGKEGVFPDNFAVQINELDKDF
# B1: PI3K p85α 1–315 aa (domain or fragment, human, UniProt P27986 1-315, looked up)
# chain: MSAEGYQYRALYDYKKEREEDIDLHLGDILTVNKGSLVALGFSDGQEARPEEIGWLNGYNETTGERGDFPGTYVEYIGRKKISPPTPKPRPPRPLPVAPGSSKTEADVEQQALTLPDLAEQFAPPDIAPPLLIKLVEAIEKKGLECSTLYRTQSSSNLAELRQLLDCDTPSVDLEMIDVHVLADAFKRYLLDLPNPVIPAAVYSEMISLAPEVQSSEEYIQLLKKLIRSPSIPHQYWLTLQYLLKHFFKLSQTSSKNLLNARVLSEIFSPMLFRFSAASSDNTENLIKVIEILISTEWNERQPAPALPPKPPKPT
# Key:
# Experiment in all cases: MST
# Cy5-G-actin = Cy5-G-actin (UniProt P68135)
# GFP-CD2AP-1–475 aa = biological target: T1, GFP-CD2AP-1–475 aa
# GFP-CD2AP-1-335 aa = biological target: T2, GFP-CD2AP-1-335 aa
Molecule,Kd (Cy5-G-actin),Kd (GFP-CD2AP-1–475 aa),Kd (GFP-CD2AP-1-335 aa)
profilin (from UniProt P07737 1-140) (natural protein),150 nM,–,–
B1,–,940 nM,350 nM
